Reference: patent US20140287419A1, “Compositions Having Dicamba Decarboxylase Activity and Methods of Use” (priority 2013, published 2014)

Assay: 14C assay with IPTG-induced recombinant E. coli cells (14CO2 capture from [14C]-carboxyl-labeled dicamba)
Conditions: for Dicamba Decarboxylase Activity: IPTG-induced recombinant E. coli cells, [14C]-carboxyl-labeled dicamba, 14CO2 capture; for Enzymatic Detection level: dicamba decarboxylation activity of the protein of the given SEQ ID NO

Molecule	Dicamba Decarboxylase Activity	Enzymatic Detection level
18 (protein, listed as Legionella pneumophila) MAIVDFETHFITEACIDYLTQRQEVPKLVPELNGAYTMCFTPDVSLFHTSALMEELLSLNEQRLAIMDQAGVTIQVLSLTTINGIDSCPGDENKSTALAREVNDQLYSAIQKHPERFKGFASISPYDVKEGVKELERAISQLGFVGWLTHSNFGQDNYLDDKIYWPLLEAAESLNIPIYLHPNVPIMREFGKYGFALGGSALGFEFDTALCLMRMILGGVFDAFPKLKIMLGHLGETMPFLMERLDHLYRIPDLKPYRPSIQRIPSEVLRQNVYITTSGRFFVPALRYVLEVMGEDRVLFASDYPMESLLDATRFIQDSDLSNQTKQKIFSINAKNLNLI	Low	Low
19 (protein, listed as Talaromyces marneffei) MATPIITLEEHYISSAIRDASETDHYAVFPSQIISKLNTLSTERLQDLDNGHVSLQVISHGPGAQPPYLCQAANDELASAISANPTRFAGFALLPIAEPQLAVQELERCITQHKFVGALIDNHTNGQFYDDQKFWPVFEKAQELDAPIYVHPSYPDEESGVAAHYRGNYDDRIAAALGAYGWGWHSDTALSILRLFAAGLFDTYPNIKIIIGHMGEMLPFQLERVIGIASRFGRSRGLREVWTQNIWVTTSGMFALAPLACLLQTMPIERVLYSVDYPFSANEKGFAFLEEIKKSGLIKEGEDWERFLYKNAQELLKVNV	High	High
11 (protein, Aspergillus niger) MALGKIALEEAFALPRFEEKTRWWASLFSVDPETHVKEITDINKLRIEHADKYGVGYQILSYTAPGVQDIWDPVEAQALAVEINDYIAEQIRDKPDRFGAFATLSMHNPQEAASELRRCVQTYGFKGALVNDTQRAGPDGDDMIFYDNASWDIFWQTCTELDVPLYLHPRNPTGTIYEKLWADRKWLVGPPLSFAQGVSLHVLGMVTNGVFDRHPNLQLIMGHLGEHVPFDMWRINHWFEDRKKLLGLAETCKKTIREYFAQNIWITTSGHFSTTTLNFCMAEVGVDRILFSIDYPFETFEDACVWFDGAELNLSDKAKIGRDNAARLFKLGAFRDYDAKVKA	Low	Low
9 (protein, listed as Octadecabacter antarcticus) MATPKITFEEHFMAPGFEKHSEAFLKLIPRDQAEILTRRLGDFDGERIETMDRGGITRSIISLTGPGTQGEAVEKAVSAAQGANDFLAEKISKKPDRLGGLATLPMHDPDAAARELNRAVNDLGLQGCLVNTHTHGAYYEGTDYDPFWAEVEKLGVPFYLHPSNAYVTPHVLGGMPVLQGATWGWGVETGSHALRILFGGVFDRFPDVKLVLGHMGEALPFLRWRYDSRFGAYPMGVSLDRAPSAYFGSNILITTSGVCSHPSLIGAIGEMGADAVMFSVDYPYEDTDLAVEFIETAPLEDATRVKICHDNAARLFGMPTLAAKEGA	No	No
13 (protein, listed as Metarhizium acridum) MAHGKVALEEAFALPRLHEKTRWWASLFAVNPDKHAAEMTDITDIRINYMDKHGVGYTILSYTAPGVQDISDPKEAQALAVEINDYVAGAIKNHPDRFGAFATLSMRNPQEAATELKRCVTQYGFKGALVNDTQRAGEDDMIFYDGPEWDVFWSTVEELDVPFYLHPRNPTGSLYEKLWAKRKWLVGPPLSFAQGVSLHVLGMVTNGVFDRHPKLQVVLGHLGEHIPFDMWRINHWFEDVKKPLGLDCKKTIREYFQQNIWITTSGHFSTTTLQFCMAEVGADRILFSIDYPFECFADACDWYDGVPINLVDKAKIGRDNARRLFKLPEFKDSEKHVDA	No	No
108 (protein, listed as Staphylococcus aureus) MAKSITFEEHYVIEDIQKETMNAISADPKGVPMKVMLEGLEKKTGFTNADELSHHDERIQFMNNQDVQIQVLSYGNGSPSNLVGQKAIELCQKANDQLANYIAQYPNRFVGFATLPINEPEAAAREFERCINDLGFKGALIMGRAQDGFLDQDKYDIIFKTAENLDVPIYLHPAPVNSDIYQSYYKGNYPEVTAATFACFGYGWHIDVGIHAIHLVLSGIFDRYPKLNMIIGHWGEFIPFFLERMDEALFAEHLNHSVSYYFKNSFYITPSGMLTKPQFDLVKKEVGIDRILYAADYPYIEPEKLGVFLDELGLTDEEKEKISYTNGAKLLGLSSNN	High	High
16 (protein, listed as Staphylococcus aureus) MAQNNMEANQMKSITFEEHYVIEDIQKETMNAISADPKGVPMKVMLEGLEKKTGFTNADELSHHDERIQFMNNQDVQIQVLSYGNGSPSNLVGQKAIELCQKANDQLANYIAQYPNRFVGFATLPINEPETAAREFERCINDLGFKGALIMGRAQDGFLDQDKYDIIFKTAENLGVPIYLHPAPVNSDIYQSYYKGNYPEVTAATFACFGYGWHIDVGIHAIHLVLSGIFDRYPKLNMIIGHWGEFIPFFLERMDEALFAEHLNHPVSYYFKNNFYITPSGMLTKPQFDLVKKEAGIDRILYAADYPYIEPEKLGVFLDELGLTDEEKEKISYTNGAKLLGLSSNN	High	High
17 (protein, Aspergillus niger) MARGKIALEEAFEVKGMDEEIDAQAALYIAPKDVERYKRQIVSITDERLQLSDQNGIGYSILSLTVPGIQGITDKDKAEKRARDVNNYIHDQIKDHRDRLGAFAALSMHDPRQAGHELRRCVKELGFHGALLNDVQHTGEGDDDQPLFYDQPDYDEFWRVAVELDVPVYLHPAAPLRDTLIYKQSYEDRKYLVGPPQSYCNGVALHLMGIIVNGVFDRFPNLKVIVGHMGERIPFDFWRMDHWVKGVTRPLAEKNGDTVCQKEPLYYFKRNIYITTSGHFSTQNLRYLYEWLGDERMMFSVDFPYERMEHGCQWYDDDAEKIKEALGGRDGYLRVGRDNARRLFKLTKFKDCDAV	Low	Low
12 (protein, listed as Zymoseptoria tritici) MALGKVAFEEAFALPRFKERTTWWAGLFAVDPEKHTREINDINKLRIEKMDQFGVGYTLLSYTAPGVQDVWQQEEADALAREVNDHVAAEIKGHEDRLGALATLSMHDPQTASAELRRCIKDYGFKGALVNDTQRNDESGTGMIFYDGPEWDVFWSTVQELDVPFYLHPRNPTGVFMEKLWAPRKWLVGPPLSFAQGVSLHLLGMVTNGTFDRFPNLQVIIGHLGEHLPFDLWRINHWFEDIKKPLGLDCKKTIREYFNENIWITTSGHFSTPTLEYCIKEIGAERILFSIDYPFEKFEDACDWYDGVELDGPDTVKKIGRENAKKLFKLGAFKDDSA	No	No
10 (protein, listed as Starkeya novella) MARKIALEEHFTTPELAGKYVARPTQSDALFADIERRLADFDELRLEMMDRAEIDLMVLSVTTPGVQGVRDTGEAIRLARGANDFLAREVQKRPSRYAGFAHLAMQDAEAAATELERAVRELGFRGALINGQTNGHYLDEDQYAPFWERVQELDVPVYLHPGNMADSPAMFAHRPELGGPIWAWTAETAAHALRLVFGGTFTRFPGAKVILGHMGETLPFLLWRLDSRREFDLGEKLAPDALPSAIIKRNIAVTTSGVCDPAPLVAALQALSDDNVMFSVDYPYEDPQLASKFIETAPIGEETRAKVCHGNAERLLGL	Low	Low
106 (protein, listed as Pyrococcus horikoshii) MAGMKFIKNLHVSKLVIDSMKALINGTIYTSFNPLKKVSGLVISHGKVIYAGDSEVAKKIVELSGGEIVDLKGKYVMPAFFDSHLHLDELGMSLEMVDLRGAKSIEELIQRLKRGKGRIIFGFGWDQDELGEWPTRKELNAIDKPVFIYRKCFHVAVANDKMLELLNLTPSKDFDEDTGIIKEKSLEEARKVINERVLTVEDYVYYIKRAQEHLLDLGVKSVSFMSVNEKALRALFYLEREGKLSINVFAYVTPEVLDKLESIGLGRFQGNRLTIAGVKLFTDGSLGARTALLSKPYSDDPSTSGQLVMEREELIRITEKARSLGLDVAIHAIGDKALDVALDVFETTGFPGRIEHASLVRDDQLERVKNLKVRLSVQPHFIISDWWIVERVGEERVKWVYRFKDLMKVAELGFSTDSPIEPADPWLTVDAAVNRGKGKVKLYELTKDQALDIKDALHSYTYGSARVSLASDIGKLEPGFKAEYIILDRDPLVVK	No	No
15 (protein, listed as Metarhizium anisopliae) MAQEIAKSHETSTRFAGFAVLPMRDPEAAAKELERAVKKLGFVGALVDHKTAHGNGFCEGNEYDVLWRKAEQLAVPIYLHPSWPTEKQFQQAYAGNYSPTAAGTIGGAMFNWHSEVGHHVLRLYAAGVFDKFPKLKIIIGHFGEMIPYMLDRIREQDHRLGKTGRTFSEVYDENIWITTSGVWSLDPMRCILANTKIDHILYSVDYPFTMNERGLEWFQELEKSGLLSEEDLALIAYKNCEKLLGVKAPTQD	Low	Low
14 (protein, listed as Talaromyces marneffei) MARGKVSFEEAYEIPALADKSREQAALYIAPKDLDRYLSEIKSPTGGRLDISNKNGIGYTIYSLTVPGVQGIADKAKAEKHATDVNNWIYNEIKDHRDRMGAFAALSMHDPVQAGQELERCVKKLGFHGALLNNWQHAGTDGETYIFYDHPSYDVFWQKCVELDVPVYLHPSAPSGKVFDTFFKDRRYLIGPPISFAQDVALHTMGLITNGVFDRNPKLKLILGHLGERIPQDLWRTNHWLEDVERPLADSRGDTMSRKPLLYYFKNNIYVTTSGHFSTETVKFVCDYFGADRILFSVDSPYEKIEEGAGWYDKDKDNLTKALGGPQQYLDVGRENAKKLFKLGKYHDCDA	Low	Low
107 (protein, listed as Rhodopseudomonas palustris) MAIIDIHGHYTTAPKALEDWRNRQIAGIKDPSVMPKVSELKISDDELQASIIENQLKKMQERGSDLTVFSPRASFMAHHIGDFNVSSTWAAICNELCYRVSQLFPDNFIGAAMLPQSPGVDPKTCIPELEKCVKEYGFVAINLNPDPSGGHWTSPPLTDRIWYPIYEKMVELEIPAMIHVSTSCNTCFHTTGAHYLNADTTAFMQCVAGDLFKDFPELKFVIPHGGGAVPYHWGRFRGLAQEMKKPLLEDHVLNNIFFDTCVYHQPGIDLLNTVIPVDNVLFASEMIGAVRGIDPRTGFYYDDTKRYIEASTILTPEEKQQIYEGNARRVYPRLDAALKAKGK	No	No
